Measurements as given in patent US11746336B2, “Producing 3-hydroxycarboxylic acid and ketone using polyketide synthases” (The Regents of the University of California, priority 2014, dated 2023).

Assays:
[1] = molecular target: T1, LipPks1+TE (Kitasatospora aureofaciens, UniProt Q30CS2); assay: Steady-state kinetic analysis of LipPks1+TE, extension substrate; assay type: biochemical, Streptomyces aureofaciens Tü117; details: tested as potential extender substrate (data not shown)
Method: Each time point was set up in a reaction volume of 75 μL. Samples containing 10 μM, 20 μM, or 40 μM methylmalonyl-CoA were individually incubated with 500 μM isovaleryl-CoA and 500 μM NADPH in the presence of 0.5 μM LipPks1+TE in 100 mM phosphate buffer, pH 7.2, containing 2.5 mM TCEP at 23° C. The reactions were quenched at different time points by adding 75 μL of methanol and subsequently filtered with an Amicon Ultra-0.5 mL Centrifugal Filter, 3K device (Millipore) at 23° C. 10 μL of the resulting solutions were analyzed by LC-MS. Authentic standard 1e was used to quantify the products in the LC-MS analysis. We assumed that ionization efficiencies of diastereomers were identical.
LC separation of the enzymatically generated products conducted at 50° C. with an Inertsil ODS-3 reverse-phase column (250 mm length, 2.1 mm internal diameter, […] particle size; GL Sciences) using a 1100 series high-performance liquid chromatography system (Agilent Technologies). The mobile phase was composed of 0.2% formic acid in water (solvent A) and 0.2% formic acid in methanol (solvent B). Products were separated using the following gradient: 60% to 100% B for 10 min, held at 100% B for 2 min, 100% to 60% B for 1 min, held at 60% B for 17 min. A flow rate of 0.14 mL/min was used throughout. […]

[2] = molecular target: T1, LipPks1+TE; assay: Steady-state kinetic analysis of LipPks1+TE, starter substrates (LC-MS quantification of products 1a-f); assay type: biochemical, Streptomyces aureofaciens Tü117
Method: (§1) A Bradford protein assay was used to measure the concentration of LipPks1+TE. […] Each time point was set up in a reaction volume of 75 μL. Samples containing 20 μM, 40 μM, 80 μM, 160 μM, or 320 μM of acyl-CoA were individually incubated with 200 μM methymalonyl-CoA and 500 μM NADPH in the presence of 0.5 μM LipPks1+TE in 100 mM phosphate buffer, pH 7.2, containing 2.5 mM TCEP at 23° C. The reactions were quenched at different time points by adding 75 μL of methanol and subsequently filtered with an Amicon Ultra-0.5 mL Centrifugal Filter, 3K device (Millipore) at 23° C. 10 μL of the resulting solutions were analyzed by liquid chromatography-mass spectrometry (LC-MS). […] We assumed that ionization efficiencies of diastereomers were identical.
(§2) LC separation of the enzymatically generated products conducted at 50° C. with an Inertsil ODS-3 reverse-phase column (250 mm length, 2.1 mm internal diameter, 3 μM particle size; GL Sciences) using a 1100 series high-performance liquid chromatography system (Agilent Technologies). The mobile phase was composed of 0.2% formic acid in water (solvent A) and 0.2% formic acid in methanol (solvent B). Products were separated using the following gradient: 60% to 100% B for 10 min, held at 100% B for 2 min, 100% to 60% B for 1 min, held at 60% B for 17 min. A flow rate of 0.14 mL/min was used throughout.
(§3) The LC system was coupled to an Agilent Technologies LC-MSD SL electrospray ionization mass (ESI MS) spectrometer. Nitrogen gas was used as both the nebulizing and drying gas to facilitate the production of gas-phase ions. The drying and nebulizing gases were set to 10 L/min and 20 lb/in2, respectively, and a drying gas temperature of 300° C. was used throughout. ESI was conducted in the negative-ion mode with a capillary voltage of 4 kV. […] The instrument was tuned for a range of m/z 50 to 3000 via the Agilent ES tuning mix. Data acquisition and processing were performed by an Agilent Chemstation (Agilent Technologies; Santa Clara, Calif.).

[3] = system: CCCC(=O)SCCNC(=O)CCNC(=O)[C@H](O)C(C)(C)COP(=O)(O)OP(=O)(O)OC[C@H]1O[C@@H](n2cnc3c(N)ncnc32)[C@H](O)[C@@H]1OP(=O)(O)O; assay: purified protein, by the assay type; details: other: KM of the starter acyl-CoA, 200 μM methylmalonyl-CoA, 500 μM NADPH, 0.5 μM LipPks1+TE, pH 7.2, 23° C.
[4] = system: CC(C)(C)C(=O)SCCNC(=O)CCNC(=O)[C@H](O)C(C)(C)COP(=O)(O)OP(=O)(O)OC[C@H]1O[C@@H](n2cnc3c(N)ncnc32)[C@H](O)[C@@H]1OP(=O)(O)O; assay: Steady-state kinetic analysis of LipPks1+TE, starter substrates (LC-MS quantification of products 1a-f); assay type: biochemical, Streptomyces aureofaciens Tü117; details: other: KM of the starter acyl-CoA, 200 μM methylmalonyl-CoA, 500 μM NADPH, 0.5 μM LipPks1+TE, pH 7.2, 23° C.
Method: as §1, §2, §3

[5] = system: CC(C)CC(=O)SCCNC(=O)CCNC(=O)[C@H](O)C(C)(C)COP(=O)(O)OP(=O)(O)OC[C@H]1O[C@@H](n2cnc3c(N)ncnc32)[C@H](O)[C@@H]1OP(=O)(O)O; assay: as above; assay type: biochemical, Streptomyces aureofaciens Tü117; details: other: KM of the starter acyl-CoA, 200 μM methylmalonyl-CoA, 500 μM NADPH, 0.5 μM LipPks1+TE, pH 7.2, 23° C.
Method: as §1, §2, §3

[6] = system: CC(C)C(=O)SCCNC(=O)CCNC(=O)[C@H](O)C(C)(C)COP(=O)(O)OP(=O)(O)OC[C@H]1O[C@@H](n2cnc3c(N)ncnc32)[C@H](O)[C@@H]1OP(=O)(O)O; assay: as above; assay type: biochemical, Streptomyces aureofaciens Tü117; details: other: KM of the starter acyl-CoA, 200 μM methylmalonyl-CoA, 500 μM NADPH, 0.5 μM LipPks1+TE, pH 7.2, 23° C.
Method: as §1, §2, §3

[7] = system: CCC(=O)SCCNC(=O)CCNC(=O)[C@H](O)C(C)(C)COP(=O)(O)OP(=O)(O)OC[C@H]1O[C@@H](n2cnc3c(N)ncnc32)[C@H](O)[C@@H]1OP(=O)(O)O; assay: as above; assay type: biochemical, Streptomyces aureofaciens Tü117; details: other: KM of the starter acyl-CoA, 200 μM methylmalonyl-CoA, 500 μM NADPH, 0.5 μM LipPks1+TE, pH 7.2, 23° C.
Method: as §1, §2, §3

For CC(C)(COP(=O)(O)OP(=O)(O)OC[C@H]1O[C@@H](n2cnc3c(N)ncnc32)[C@H](O)[C@@H]1OP(=O)(O)O)[C@@H](O)C(=O)NCCC(=O)NCCSC(=O)CC(=O)O [Malonyl-CoA], the “acceptance as extender substrate by the AT domain” value [1] was “not accepted”.

With CC(=O)SCCNC(=O)CCNC(=O)[C@H](O)C(C)(C)COP(=O)(O)OP(=O)(O)OC[C@H]1O[C@@H](n2cnc3c(N)ncnc32)[C@H](O)[C@@H]1OP(=O)(O)O [acetyl-CoA] the “product formation with starter substrate” value ([2]; 200 μM methylmalonyl-CoA with NADPH (data not shown)) was “No product was observed”.

With CC(C)C(=O)SCCNC(=O)CCNC(=O)[C@H](O)C(C)(C)COP(=O)(O)OP(=O)(O)OC[C@H]1O[C@@H](n2cnc3c(N)ncnc32)[C@H](O)[C@@H]1OP(=O)(O)O [isobutyryl-CoA] the kcat ([2]; starter acyl-CoA 20-320 μM, 200 μM methylmalonyl-CoA, 500 μM NADPH, 0.5 μM LipPks1+TE, pH 7.2, 23° C.) was 0.000883 s⁻¹.

LipPks1+TE (Kitasatospora aureofaciens) was tested, and the Km [3] was 26.4 µM, the kcat [3] was 0.0006 s⁻¹ and the kcat/Km [3] was 22.7 M⁻¹ s⁻¹. It also gave a Km [4] of 8.8 µM, a kcat [4] of 3.33e-05 s⁻¹ and a kcat/Km [4] of 4.1 M⁻¹ s⁻¹. The Km [5] was 128.1 µM, the kcat [5] was 0.00483 s⁻¹ and the kcat/Km [5] was 38 M⁻¹ s⁻¹. For the same compound, the Km [6] was 2.9 µM, the kcat [6] was 0.000883 s⁻¹ and the kcat/Km [6] was 304.1 M⁻¹ s⁻¹. It also gave a Km [7] of 13.4 µM, a kcat [7] of 0.000933 s⁻¹ and a kcat/Km [7] of 70.3 M⁻¹ s⁻¹.
